This note sets out measurements from patent publication US20100260765A1 (AstraZeneca / MedImmune, published 2010).

Common to all, as to assay: cell-based or functional assay
In assay [1] the target is human KDR on cells (human, UniProt P35968 20-1356).
In assay [2] the target is T1, KDR (human, UniProt P35968 20-1356).
Assay [3] deals with T1, KDR. The source holds these as a separate data set.
In assay [4] the target is T1, KDR. This is another data set of the same source.
For assay [5], the target named is T1, KDR. The source holds these as a separate data set.

Sequence of human KDR on cells (P35968 20-1356): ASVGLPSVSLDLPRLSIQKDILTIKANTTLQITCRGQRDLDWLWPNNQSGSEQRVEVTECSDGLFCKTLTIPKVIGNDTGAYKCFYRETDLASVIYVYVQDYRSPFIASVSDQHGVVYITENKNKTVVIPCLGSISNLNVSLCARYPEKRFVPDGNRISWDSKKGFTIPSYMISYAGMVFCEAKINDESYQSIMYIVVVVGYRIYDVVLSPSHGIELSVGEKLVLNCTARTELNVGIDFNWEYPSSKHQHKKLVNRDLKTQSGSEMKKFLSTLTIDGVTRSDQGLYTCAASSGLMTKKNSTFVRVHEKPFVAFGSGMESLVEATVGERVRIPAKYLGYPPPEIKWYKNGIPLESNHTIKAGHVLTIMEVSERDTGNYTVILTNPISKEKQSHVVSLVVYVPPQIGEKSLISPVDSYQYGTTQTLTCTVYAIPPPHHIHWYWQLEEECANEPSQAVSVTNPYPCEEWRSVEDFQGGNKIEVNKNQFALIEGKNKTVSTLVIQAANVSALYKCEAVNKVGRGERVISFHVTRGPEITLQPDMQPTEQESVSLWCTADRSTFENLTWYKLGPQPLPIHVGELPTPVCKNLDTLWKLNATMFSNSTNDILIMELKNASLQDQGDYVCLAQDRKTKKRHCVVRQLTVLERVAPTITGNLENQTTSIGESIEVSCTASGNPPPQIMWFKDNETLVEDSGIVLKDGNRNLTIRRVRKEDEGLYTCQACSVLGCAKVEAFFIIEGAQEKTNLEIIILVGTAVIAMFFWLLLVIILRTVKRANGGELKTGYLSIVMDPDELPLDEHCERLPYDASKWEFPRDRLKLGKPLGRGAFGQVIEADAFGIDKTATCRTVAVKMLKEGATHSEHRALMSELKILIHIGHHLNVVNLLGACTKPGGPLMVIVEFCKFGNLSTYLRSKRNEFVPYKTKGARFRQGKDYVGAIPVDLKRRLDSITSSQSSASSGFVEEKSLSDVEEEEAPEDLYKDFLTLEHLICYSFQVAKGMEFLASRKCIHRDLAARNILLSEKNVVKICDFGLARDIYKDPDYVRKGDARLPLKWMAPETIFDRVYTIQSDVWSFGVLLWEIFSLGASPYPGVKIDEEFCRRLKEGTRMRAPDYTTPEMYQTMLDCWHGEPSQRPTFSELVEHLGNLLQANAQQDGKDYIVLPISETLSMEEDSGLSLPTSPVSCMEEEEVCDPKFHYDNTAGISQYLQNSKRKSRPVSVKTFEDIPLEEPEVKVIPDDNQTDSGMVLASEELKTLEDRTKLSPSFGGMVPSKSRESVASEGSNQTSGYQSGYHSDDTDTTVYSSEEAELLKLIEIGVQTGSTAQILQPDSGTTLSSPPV
T1 sequence (P35968 20-1356): as above

B1: 22B8 (antibody, V domains shown)
VH: QLQLQESGPGLVKPSETLSLTCTVSGGSISSRYYYWGWVRQPPGKGLEWIGTIYYSGHTYYNPSLKTRVTISVDTSKNQFSLKLISVTAADTAVYYCATQQLVLYYFDFWGQGTLVTVSS
VL: EIVLTQSPGTLSLSPGERAALSCRASQSISSSYLAWYQQRPGQAPRLLIYGASSRATGIPDRFNGSGSGTDFTLTISRLEPEDFAVYYCQQFGSSITFGQGTRLEIK
As to B1, in assay [1], the “% Inhibition (Average) of VEGF-C-mediated KDR activity, antibody 1 nM” value (“% Inhibition (Average) … antibody 1 nM” for short) amounted to 27%; the “% Inhibition (Average) of VEGF-C-mediated KDR activity, antibody 10 nM” value (“% Inhibition (Average) … antibody 10 nM” for short) worked out at 65%; the “% Inhibition (Average) of VEGF-C-mediated KDR activity, antibody 100 nM” value (from here on “% Inhibition (Average) … antibody 100 nM”) is 74%; the “% Inhibition (N = 1) of VEGF-C-mediated KDR activity, antibody 1 nM” value turned out to be 38%. For the same molecule, in assay [1], the “% Inhibition (N = 1) of VEGF-C-mediated KDR activity, antibody 10 nM” value was determined as 74%; the “% Inhibition (N = 1) of VEGF-C-mediated KDR activity, antibody 100 nM” value stood at 71%; the “% Inhibition (N = 2) of VEGF-C-mediated KDR activity, antibody 1 nM” value turned out to be 17%; the “% Inhibition (N = 2) of VEGF-C-mediated KDR activity, antibody 10 nM” value is 56%. Moreover, the “% Inhibition (N = 2) of VEGF-C-mediated KDR activity, antibody 100 nM” value in assay [1] turned out to be 77%.

B2: 27A3 (antibody, V domains shown)
VH: QLQLQESGPGLVKPSETLSLTCTVSGGSISSRSDYWGWIRQPPGKGLEWIGTIYYSGDTYYNPSLKSRVTISVDTSKNQFSLKLSSVTAADTAVYYCARQQLVLYYFDYWGQGTLVTVSS
VL: EIVLTQSPGTLSLSPGERATLSCRASQSVSSSYLAWYQQKPGQAPRLLIYATSNRATGIPDRFSGSGSGTDFTLTISRLEPEDFAVYYCQQHGSSPPLTFGGGTKVEIK
As to B2, in assay [1], the “% Inhibition (Average) … antibody 1 nM” value is 39%; the “% Inhibition (Average) … antibody 10 nM” value stood at 78%; the “% Inhibition (Average) … antibody 100 nM” value came to 75%; the “% Inhibition (N = 1) of VEGF-C-mediated KDR activity, antibody 1 nM” value came to 40%. In assay [1], the “% Inhibition (N = 1) of VEGF-C-mediated KDR activity, antibody 10 nM” value was determined as 75%; the “% Inhibition (N = 1) of VEGF-C-mediated KDR activity, antibody 100 nM” value came to 73%; the “% Inhibition (N = 2) of VEGF-C-mediated KDR activity, antibody 1 nM” value amounted to 38%; the “% Inhibition (N = 2) of VEGF-C-mediated KDR activity, antibody 10 nM” value is 80%. In addition, the “% Inhibition (N = 2) of VEGF-C-mediated KDR activity, antibody 100 nM” value in assay [1] is 77%.

B3: 33E1 (antibody, V domains shown)
VH: QVQLQESGPGLVKPSQTLSLTCTVSGGSISSGDHYWSWIRQHPGKGLEWIGHIYYSGSTDYNPSLKSRVTISVDTSKNHFSLKLNSVTAADTAVYYCARTNSSSWSDWYFDLWGRGTLVTVSS
VL: DIVMTQSPDSLAVSLGERATINCKSSQSILYSSNNKNYLAWYQRKPGQPPILLIHWASTRESGVPDRFSGSGSRTDFTLTISSLQAEDVAVYYCQQYFITPWTFGQGTKVEIK
Take B3: in assay [1], the “% Inhibition (Average) … antibody 1 nM” value was 32%; the “% Inhibition (Average) … antibody 10 nM” value amounted to 69%; the “% Inhibition (Average) … antibody 100 nM” value is 79%; the “% Inhibition (N = 1) of VEGF-C-mediated KDR activity, antibody 1 nM” value is 29%. In assay [1], the “% Inhibition (N = 1) of VEGF-C-mediated KDR activity, antibody 10 nM” value came to 75%; the “% Inhibition (N = 1) of VEGF-C-mediated KDR activity, antibody 100 nM” value was found to be 83%; the “% Inhibition (N = 2) of VEGF-C-mediated KDR activity, antibody 1 nM” value was found to be 36%; the “% Inhibition (N = 2) of VEGF-C-mediated KDR activity, antibody 10 nM” value is 64%. The “% Inhibition (N = 2) of VEGF-C-mediated KDR activity, antibody 100 nM” value in assay [1] stood at 75%.

B4: 32F4 (antibody, V domains shown)
VH: QLQLQESGPGLVKPSGTLSLSCTVSGGSISSRSDYWGWIRQPPGKGLEWIGTIYYSGNTFYNPSLKSRVTISVDTSKKQFSLKLSSVTAADTAVYYCARQQLVLYYFDYWGQGTLVTVSS
VL: EIVLTQSPGTLSLSPGERATLSCRTSQSVSSSYLAWYQQKPGQAPRLLIYGASSRATGVPDRFSGSGSGTDFSLTISRLEPEDFAVYYCQQYGSSPPLTFGGGTKVEIK
With B4, in assay [2], the “% Inhibition of VEGF165-mediated 6-keto Prostaglandin F1α release at 133 nM Antibody Concentration, Average” value turned out to be 73%; the “% Inhibition of VEGF165-mediated 6-keto Prostaglandin F1α release at 133 nM Antibody Concentration, N = 1” value amounted to 69%; the “% Inhibition of VEGF165-mediated 6-keto Prostaglandin F1α release at 133 nM Antibody Concentration, N = 2” value was 76%. Also, in assay [3], the “Activity at 133 nM (% Inhibition), 1-hour Pre-incubation at 4° C., Average” value was found to be 64%; the “Activity at 133 nM (% Inhibition), 1-hour Pre-incubation at 4° C., N = 1” value came to 60%; the “Activity at 133 nM (% Inhibition), 1-hour Pre-incubation at 4° C., N = 2” value was determined as 68%. In addition, in assay [4], the “Activity at 133 nM Antibody Concentration (% Survival Inhibition), Average” value turned out to be 73%; the “Activity at 133 nM Antibody Concentration (% Survival Inhibition), N = 1” value is 88%; the “Activity at 133 nM Antibody Concentration (% Survival Inhibition), N = 2” value is 58%. Besides, in assay [5], the “Activity at 133 nM (% Inhibition), 24-hour Pre-incubation at 37° C., Average” value is 22%; the “Activity at 133 nM (% Inhibition), 24-hour Pre-incubation at 37° C., N = 1” value is 25%; the “Activity at 133 nM (% Inhibition), 24-hour Pre-incubation at 37° C., N = 2” value was found to be 18%.
